Test results: publication PMC7904846 (2021)

B1: CD105 (natural protein)
chain: ETVHCDLQPVGPERGEVTYTTSQVSKGCVAQAPNAILEVHVLFLEFPTGPSQLELTLQASKQNGTWPREVLLVLSVNSSVFLHLQALGIPLHLAYNSSLVTFQEPPGVNTTELPSFPKTQILEWAAERGPITSAAELNDPQSILLRLGQAQGSLSFCMLEASQDMGRTLEWRPRTPALVRGCHLEGVAGHKEAHILRVLPGHSAGPRTVTVKVELSCAPGDLDAVLILQGPPYVSWLIDANHNMQIWTTGEYSFKIFPEKNIRGFKLPDTPQGLLGEARMLNASIVASFVELPLASIVSLHASSCGGRLQTSPAPIQTTPPKDTCSPELLMSLIQTKCADDAMTLVLKKELVAHLKCTITGLTFWDPSCEAEDRGDKFVLRSAYSSCGMQVSASMISNEAVVNILSSSSPQRKKVHCLNMDSLSFQLGLYLSPHFLQASNTIEPGQQSFVQVRVSPSVSEFLLQLDSCHLDLGPEGGTVELIQGRAAKGNCVSLLSPSPEGDPRFSFLLHFYTVPIPKTGTLSCTVALRPKTGSQDQEVHRTVFMRLNIISPDLSGCTSKGLVLPAVLGITFGAFLIGALLTAALWYIYSHTRSPSKREPVVAVAAPASSESSSTNHSIGSTQSTPCSTSSMA

Assays:
Assay in all cases: SPR
[1] = biological target: B1
[2] = biological target: B1
[3] = biological target: C59
[4] = biological target: C86
[5] = biological target: C50
[6] = biological target: C68
[7] = biological target: C168

Binder | Kd [1] [nM] | koff [2] [s⁻¹] | Kd [3] [nM] | koff [3] [s⁻¹] | Kd [4] [nM] | koff [4] [s⁻¹] | Kd [5] [nM] | koff [5] [s⁻¹] | Kd [6] [nM] | koff [6] [s⁻¹] | Kd [7] [nM] | koff [7] [s⁻¹]
Nb C184 (VHH) VHH: QVQLQESGGGSVQAGGSLRLSCVASGYTVSRGYMGWFRQAPGKEREAVAAIRTGSGSTYYADSVKGRFTISQDNAKNTVYLQMNSLKHEDTGMYYCAASLWYGGNWQSWGSYNYWGQGTQVTVSS | 44.7 | 0.00188 |  |  |  |  |  |  |  |  |  | 
B1 |  |  | 65.9 | 0.00255 | 42.6 | 0.00144 | 16.2 | 0.00132 | 28.9 | 0.00171 | 89 | 0.00391
